Laboratory results as given in paper PMC8197658.

T1: SALL4 ZFC4 (UniProt Q9UJQ4 864-929)
T1 sequence: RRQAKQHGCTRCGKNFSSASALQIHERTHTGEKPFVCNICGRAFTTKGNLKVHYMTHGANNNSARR


How the values were obtained:
SALL4 ZFC4 = biological target: T1, SALL4 ZFC4; experiment: ITC
SALL4A (full-length) = SALL4A (full-length) (Homo sapiens, UniProt Q9UJQ4 1-1053); experiment: EMSA
SALL4A (full-length), sequence (Q9UJQ4 whole entry): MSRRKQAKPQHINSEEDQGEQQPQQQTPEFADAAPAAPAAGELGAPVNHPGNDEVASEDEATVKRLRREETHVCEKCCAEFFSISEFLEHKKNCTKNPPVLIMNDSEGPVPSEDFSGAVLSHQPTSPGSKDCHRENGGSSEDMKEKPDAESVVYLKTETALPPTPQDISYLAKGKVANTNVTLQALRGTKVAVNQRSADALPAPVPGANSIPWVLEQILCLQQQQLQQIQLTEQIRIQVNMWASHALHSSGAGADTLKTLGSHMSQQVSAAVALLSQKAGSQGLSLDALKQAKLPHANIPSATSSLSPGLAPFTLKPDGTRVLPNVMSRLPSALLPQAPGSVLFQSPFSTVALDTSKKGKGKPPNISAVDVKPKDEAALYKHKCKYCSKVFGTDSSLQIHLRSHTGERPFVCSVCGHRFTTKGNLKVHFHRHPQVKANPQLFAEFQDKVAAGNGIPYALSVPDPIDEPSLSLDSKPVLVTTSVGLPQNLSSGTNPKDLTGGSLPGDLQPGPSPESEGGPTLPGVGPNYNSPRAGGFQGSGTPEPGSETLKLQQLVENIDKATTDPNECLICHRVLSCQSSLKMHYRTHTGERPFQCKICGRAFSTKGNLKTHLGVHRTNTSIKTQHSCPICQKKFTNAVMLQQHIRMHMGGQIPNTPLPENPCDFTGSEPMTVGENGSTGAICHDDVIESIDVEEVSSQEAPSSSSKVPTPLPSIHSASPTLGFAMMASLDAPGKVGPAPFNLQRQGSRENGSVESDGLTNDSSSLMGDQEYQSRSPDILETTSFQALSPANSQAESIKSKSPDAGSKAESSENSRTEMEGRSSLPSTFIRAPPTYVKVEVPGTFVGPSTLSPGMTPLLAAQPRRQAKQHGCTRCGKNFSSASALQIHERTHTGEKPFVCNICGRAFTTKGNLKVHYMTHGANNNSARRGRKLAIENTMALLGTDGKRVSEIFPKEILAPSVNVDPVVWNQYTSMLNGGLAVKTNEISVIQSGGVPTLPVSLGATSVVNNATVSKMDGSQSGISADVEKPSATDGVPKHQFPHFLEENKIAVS

Binder	binding result (SALL4 ZFC4)	binding result (SALL4A (full-length))
ITC Mutant oligo 2 (dsDNA) DNA 1: GATAAACGCTTG DNA 2: CAAGCGTTTATC	no binding	–
KDM3A EMSA Mutant oligo (dsDNA) DNA 1: TCTTCTTTTAACCTTCAAAA DNA 2: TTTTGAAGGTTAAAAGAAGA	–	no binding
ITC Mutant oligo 1 (dsDNA) DNA 1: GAGTCGCTAATG DNA 2: CATTAGCGACTC	no binding	–
KDM3A EMSA WT oligo (dsDNA) DNA 1: TCTTCATTTATCCTTCAAAA DNA 2: TTTTGAAGGATAAATGAAGA	–	binds
